B1: DGL288 (bispecific antibody)
chain: EVQLLESGGGLVQPGGSLRLSCAASGFTFSDYYMTWIRQAPGKGLEWVSSISGGSTYYADSRKGRFTISRDNSENTLYLQMNSLRAEDTAVYYCARDFGVAGWFGQYGMDVWGQGTLVTVSSGGGGSGGGGSGGGGSQSVLTQPPSASGTPGQRVTISCTGSSSNIGAGYDVHWYQQLPGTAPKLLIYRSNQRPSGVPDRFSGSKSGTSASLAISGLRSEDEADYYCSSYAGNYNLVFGGGTKLTVLDKGPSVFPLAPEPKSSEVQLLESGGGLVQPGGSLRLSCAASGFTFSSYAMSWVRQAPGKGLEWVANINQDGSEKNYVDSMRGRFTISRDNSKNTLYLQMNSLRAEDTAVYYCAREFDYWGQGTLVTVTSSGGGGSGGGGSGGGGSQSVLAQPPSASGTPGQRVTISCSGSSSNIGSNYVYWYQQLPGTAPKLLIYGNNKRPSGVPDRFSGSKSGTSASLAISGLRSEDEADYYCAAWDDSLNGRVFGGGTKLTVLDKTHTCPPCPAPEAAGAPSVFLFPPKPKDTLMISRTPEVTCVVVDVSHEDPEVKFNWYVDGVEVHNAKTKPREEQYNSTYRVVSVLTVLHQDWLNGKEYKCKVSNKALPAPIEKTISKAKGQPREPQVYTLPPSRDELTKNQVSLTCLVKGFYPSDIAVEWESNGQPENNYKTTPPVLDSDGSFFLYSKLTVDKSRWQQGNVFSCSVMHEALHNHYTQKSLSLSPG
B2: DGL286 (bispecific antibody)
chain: EVQLLESGGGLVQPGGSLRLSCAASGFTFSNAWMNWVRQAPGKGLEWVSSISSSSSYIYYADSVKGRFTISRDNSKNTLYLQMNSLRAEDTAVYYCARAVAAGGMFWGLDQWGQGTLVTVTSSGGGGSGGGGSGGGGSQSVLTQPPSASGTPGQRVTISCSGSRSNIGSNSVHWYQQLPGTAPKLLIYGNSNRPSGVPDRFSGSKSGTSASLAISGLRSEDEADYYCQSYDSSLNDHVVFGGGTKLTVLDKGPSVFPLAPEPKSSEVQLLESGGGLVQPGGSLRLSCAASGFTFSIYAMSWVRQAPGKGLEWVSAISGSGGSTYYADSVKGRFTISRDNSKNTLYLQMNSLRAEDTAVYYCARDFDYWGQGTLVTVTSSGGGGSGGGGSGGGGSQSVLTQPPSASGTPGQRVTISCSGSSSNIGSNYVYWYQQLPGTAPKLLIYGNINRPSGVPDRFSGSKSGTSASLAISGLRSEDEADYYCAAWDDSLNGRVFGGGTKLTVLDKTHTCPPCPAPEAAGAPSVFLFPPKPKDTLMISRTPEVTCVVVDVSHEDPEVKFNWYVDGVEVHNAKTKPREEQYNSTYRVVSVLTVLHQDWLNGKEYKCKVSNKALPAPIEKTISKAKGQPREPQVYTLPPSRDELTKNQVSLTCLVKGFYPSDIAVEWESNGQPENNYKTTPPVLDSDGSFFLYSKLTVDKSRWQQGNVFSCSVMHEALHNHYTQKSLSLSPG
B3: DGL287 (bispecific antibody)
chain: EVQLLESGGGLVQPGGSLRLSCAASGFTFSSYAMSWVRQAPGKGLEWVANINQDGSEKNYVDSMRGRFTISRDNSKNTLYLQMNSLRAEDTAVYYCAREFDYWGQGTLVTVTSSGGGGSGGGGSGGGGSQSVLAQPPSASGTPGQRVTISCSGSSSNIGSNYVYWYQQLPGTAPKLLIYGNNKRPSGVPDRFSGSKSGTSASLAISGLRSEDEADYYCAAWDDSLNGRVFGGGTKLTVLDKGPSVFPLAPEPKSSEVQLLESGGGLVQPGGSLRLSCAASGFTFSDYYMTWIRQAPGKGLEWVSSISGGSTYYADSRKGRFTISRDNSENTLYLQMNSLRAEDTAVYYCARDFGVAGWFGQYGMDVWGQGTLVTVSSGGGGSGGGGSGGGGSQSVLTQPPSASGTPGQRVTISCTGSSSNIGAGYDVHWYQQLPGTAPKLLIYRSNQRPSGVPDRFSGSKSGTSASLAISGLRSEDEADYYCSSYAGNYNLVFGGGTKLTVLDKTHTCPPCPAPEAAGAPSVFLFPPKPKDTLMISRTPEVTCVVVDVSHEDPEVKFNWYVDGVEVHNAKTKPREEQYNSTYRVVSVLTVLHQDWLNGKEYKCKVSNKALPAPIEKTISKAKGQPREPQVYTLPPSRDELTKNQVSLTCLVKGFYPSDIAVEWESNGQPENNYKTTPPVLDSDGSFFLYSKLTVDKSRWQQGNVFSCSVMHEALHNHYTQKSLSLSPG

These binders were tested against ALK-1/BMPR-2 receptor pair of the PathHunter U2Os dimerization cells (DiscoverX 93-0962C3) (UniProt P37023 22-503; Q13873 27-1038) (assay: cell-based or functional assay).
ALK-1/BMPR-2 receptor pair of the PathHunter U2Os dimerization cells (DiscoverX 93-0962C3), sequence (P37023 22-503, chain 1 of 2): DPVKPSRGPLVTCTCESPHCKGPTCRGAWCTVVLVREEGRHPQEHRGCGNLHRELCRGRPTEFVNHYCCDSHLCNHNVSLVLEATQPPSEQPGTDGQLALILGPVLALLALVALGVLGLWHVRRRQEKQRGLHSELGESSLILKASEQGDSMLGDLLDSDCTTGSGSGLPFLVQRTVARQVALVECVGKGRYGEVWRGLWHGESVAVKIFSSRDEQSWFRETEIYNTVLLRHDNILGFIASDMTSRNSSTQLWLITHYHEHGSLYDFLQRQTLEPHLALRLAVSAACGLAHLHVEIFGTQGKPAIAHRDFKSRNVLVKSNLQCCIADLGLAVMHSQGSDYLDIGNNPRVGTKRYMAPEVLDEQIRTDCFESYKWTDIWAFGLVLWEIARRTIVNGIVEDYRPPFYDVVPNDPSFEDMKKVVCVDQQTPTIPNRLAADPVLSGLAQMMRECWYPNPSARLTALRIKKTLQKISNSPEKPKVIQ
ALK-1/BMPR-2 receptor pair of the PathHunter U2Os dimerization cells (DiscoverX 93-0962C3), sequence (Q13873 27-1038, chain 2 of 2): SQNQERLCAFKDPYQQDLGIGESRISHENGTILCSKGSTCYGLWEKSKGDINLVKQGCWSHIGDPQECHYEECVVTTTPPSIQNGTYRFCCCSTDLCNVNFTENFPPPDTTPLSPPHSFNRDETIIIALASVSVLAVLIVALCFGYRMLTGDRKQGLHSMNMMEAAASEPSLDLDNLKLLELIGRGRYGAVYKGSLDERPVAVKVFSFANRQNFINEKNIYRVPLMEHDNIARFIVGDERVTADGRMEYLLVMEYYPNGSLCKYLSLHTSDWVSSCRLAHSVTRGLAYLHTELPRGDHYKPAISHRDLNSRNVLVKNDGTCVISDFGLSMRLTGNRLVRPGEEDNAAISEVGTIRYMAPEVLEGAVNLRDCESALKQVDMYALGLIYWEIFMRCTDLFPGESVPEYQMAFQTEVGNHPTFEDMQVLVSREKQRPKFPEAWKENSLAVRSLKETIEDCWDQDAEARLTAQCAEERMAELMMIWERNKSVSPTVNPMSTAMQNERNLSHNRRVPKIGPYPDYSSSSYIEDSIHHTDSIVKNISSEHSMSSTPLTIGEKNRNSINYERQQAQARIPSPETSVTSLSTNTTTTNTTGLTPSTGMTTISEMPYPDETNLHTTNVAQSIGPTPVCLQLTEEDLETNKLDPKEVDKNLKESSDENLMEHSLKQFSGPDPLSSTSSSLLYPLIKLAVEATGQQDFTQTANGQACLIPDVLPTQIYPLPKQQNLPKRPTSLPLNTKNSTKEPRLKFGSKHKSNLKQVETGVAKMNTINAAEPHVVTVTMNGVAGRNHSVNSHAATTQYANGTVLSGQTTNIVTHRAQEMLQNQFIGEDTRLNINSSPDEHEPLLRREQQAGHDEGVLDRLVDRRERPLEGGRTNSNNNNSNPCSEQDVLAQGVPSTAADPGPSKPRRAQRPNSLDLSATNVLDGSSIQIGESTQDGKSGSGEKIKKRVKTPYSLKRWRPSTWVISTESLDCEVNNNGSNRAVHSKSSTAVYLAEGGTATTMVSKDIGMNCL

% Emax BMP9	EC50	Emax (RLU)	Binder
76%	0.07 nM	2e+06 RLU	B1
68%	0.2 nM	1.8e+06 RLU	B2
48%	0.04 nM	1.26e+06 RLU	B3

Source: patent publication US20250002588A1 (DIAGONAL THERAPEUTICS, published 2025)
